Results reported in patent US20230212319A1, “NOVEL ANTIGEN BINDING DOMAINS AND SYNTHETIC ANTIGEN RECEPTORS INCORPORATING THE SAME” (University of Southern California, priority 2020, published 2023).

B1: 22128 (protein)
chain: MALPVTALLLPLALLLHAARPQVQLVESGGGLVQPGGSLRLSCAASGFTFTNHAMSWVRQAPGKGLELVSSISGNGRTTYYADSVKGRFTISRDISKNTLDLQMNSLRAEDTAVYYCAKDGGETLVDSRGQGTLVTVSSLEGGGGSGGGGSIEGGGGSGGGGSKVQLLESGGGLVQPGGSLRLSCAASGFIFSSYAMSWVRQAPGKGQEWVSGVSGTGVNTYYADSVKGRFTISRDNSKNTLYLQMNSLRAEDTAVYYCASGKGWDSGSWYEDYRGQGTLVTVSSGTGGGGSGGGGSGGGGSEFDIQMTQSPSSLSASVGDRVTITCKASDHINNWLAWYQQKPGQAPKLLIYGATTLETGVPSRFSGSGSGTDYTLTISSLQPEDFATYYCQQSWNTPWTFGQGTKLEIKRLEDLKNVFPPEVAVFEPSEAEISHTQKATLVCLATGFYPDHVELSWWVNGKEVHSGVCTDPQPLKEQPALNDSRYCLSSRLRVSATFWQNPRNHFRCQVQFYGLSENDEWTQDRAKPVTQIVSAEAWGRADCGFTSESYQQGVLSATILYEILLGKATLYAVLVSALVLMAMVKRKDSRGRAKRSGSGATNFSLLKQAGDVEENPGPTSMDWIWRILFLVGAATGAHSFEQVQLQQPGAELVKPGASVKMSCKASGYAFSSYWINWMKQKPGQGLEWIGQIYPGDGDTNYNGKFKGRATLTADTSSSTAYMQLSSLTSEDSAVYFCARSITTVVGCAMDYWGQGTSVTVSSTRIQNPDPAVYQLRDSKSSDKSVCLFTDFDSQTNVSQSKDSDVYITDKCVLDMRSMDFKSNSAVAWSNKSDFACANAFNNSIIPEDTFFPSPESSCDVKLVEKSFETDTNLNFQNLSVIGFRILLLKVAGFNLLMTLRLWSSRAKRSGSGVKQTLNFDLLKLAGDVESNPGPSRAHMTEYKPTVRLATRDDVPRAVRTLAAAFADYPATRHTVDPDRHIERVTELQELFLTRVGLDIGKVWVADDGAAVAVWTTPESVEAGAVFAEIGPRMAELSGSRLAAQQQMEGLLAPHRPKEPAWFLATVGVSPDHQGKGLGSAVVLPGVEAAERAGVPAFLETSAPRNLPFYERLGFTVTADVEVPEGPRTWCMTRKPGA
B2: 22169 (protein)
chain: MALPVTALLLPLALLLHAARPEVQLVESGGGLVQPGGSLRLSCAASGFASDYYIIGWFRQAPGKEREGVSCISSRYANTNYADSVKGRFTISRDNAKNTVYLQMNSLKPEDTAVYYCAADTRRYTCPDIATMHRNFDSWGQGTLVTVSSGTGGGGSGGGGSGGGGSEFDIQMTQSPSSLSASVGDRVTITCKASDHINNWLAWYQQKPGQAPKLLIYGATTLETGVPSRFSGSGSGTDYTLTISSLQPEDFATYYCQQSWNTPWTFGQGTKLEIKRLEIQNPDPAVYQLRDSKSSDKSVCLFTDFDSQTNVSQSKDSDVYITDKCVLDMRSMDFKSNSAVAWSNKSDFACANAFNNSIIPEDTFFPSSDVPCDVKLVEKSFETDTNLNFQNLSVIGFRILLLKVAGFNLLMTLRLWSSRAKRSGSGVKQTLNFDLLKLAGDVESNPGPTSATMDWIWRILFLVGAATGAHSGPQVQLQESGGGLAQAGGSLRLSCAASGRTFSMGWFRQAPGKEREFVAAITYSGGSPYYASSVRGRFTISRDNAKNTVYLQMNSLKPEDTAVYYCAANPTYGSDWNAENWGQGTQVTVSSGSGGGGSGGGGSGGGGSFEQVQLQQPGAELVKPGASVKMSCKASGYAFSSYWINWMKQKPGQGLEWIGQIYPGDGDTNYNGKFKGRATLTADTSSSTAYMQLSSLTSEDSAVYFCARSITTVVGCAMDYWGQGTSVTVSSTREDLKNVFPPEVAVFEPSKAEIAHTQKATLVCLATGFYPDHVELSWWVNGKEVHSGVCTDPQPLKEQPALNDSRYCLSSRLRVSATFWQNPRNHFRCQVQFYGLSENDEWTQDRAKPVTQIVSAEAWGRADCGITSASYHQGVLSATILYEILLGKATLYAVLVSALVLMAMVKRKDSRGRAKRSGSGATNFSLLKQAGDVEENPGPSRGHMTEYKPTVRLATRDDVPRAVRTLAAAFADYPATRHTVDPDRHIERVTELQELFLTRVGLDIGKVWVADDGAAVAVWTTPESVEAGAVFAEIGPRMAELSGSRLAAQQQMEGLLAPHRPKEPAWFLATVGVSPDHQGKGLGSAVVLPGVEAAERAGVPAFLETSAPRNLPFYERLGFTVTADVEVPEGPRTWCMTRKPGA

Columns and labels:
Assay type in all cases: cell-based
RAJI cells = assay: JNG assay, co-culture with RAJI cells; conditions: JNG cells expressing construct, co-culture with Raji
In short: (§1)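 Read-out is NFAT-driven GFP measured by flow cytometry after ~4–18 h co-culture of SAR-expressing JNG cells with target cells (E:T about 1:2). SARs were introduced by lentiviral spinfection and selected with puromycin or blasticidin when possible; scores (+/- to 5+ ≈ 5–50% GFP+) are relative to parental JNG cells.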

RAJI-CD19-KO cells = assay: JNG assay, co-culture with RAJI-CD19-KO cells; conditions: co-culture with Raji-CD19-KO
In short: as §1

L363 cells = assay: JNG assay, co-culture with L363 cells; conditions: co-culture with L363
In short: as §1

RS;411 = assay: JNG assay, co-culture with RS;411 cells; conditions: co-culture with RS411
In short: as §1

L363-CD38-KO = assay: JNG NFAT-GFP assay, co-culture with L363-CD38-KO cells
U-87 MG = assay: JNG NFAT-GFP assay, co-culture with U-87 MG cells

Row | Molecule | NFAT-GFP ASSAY: Raji (RAJI cells) | NFAT-GFP ASSAY: Raji-CD19-KO (RAJI-CD19-KO cells) | NFAT-GFP ASSAY: L363 (L363 cells) | NFAT-GFP ASSAY: RS411 (RS;411) | NFAT-GFP ASSAY: L363-CD38-KO (L363-CD38-KO) | NFAT-GFP ASSAY: U-87 MG (U-87 MG)
1 | B1 | 3+ (refer to approximately 5%, 10%, 20%, 30%, 40% and 50% GFP positive cells) | 2+ (refer to approximately 5%, 10%, 20%, 30%, 40% and 50% GFP positive cells) | 2+ (refer to approximately 5%, 10%, 20%, 30%, 40% and 50% GFP positive cells) | 2+ (refer to approximately 5%, 10%, 20%, 30%, 40% and 50% GFP positive cells) | 2+ (refer to approximately 5%, 10%, 20%, 30%, 40% and 50% GFP positive cells) | 
2 | B2 | 3+ (refer to approximately 5%, 10%, 20%, 30%, 40% and 50% GFP positive cells) | 4+ (refer to approximately 5%, 10%, 20%, 30%, 40% and 50% GFP positive cells) |  | 2+ (refer to approximately 5%, 10%, 20%, 30%, 40% and 50% GFP positive cells) |  | 3+ (refer to approximately 5%, 10%, 20%, 30%, 40% and 50% GFP positive cells)
